Assay results published in patent US8138140B2, “Self-assembling peptide amphiphiles and related methods for growth factor delivery” (Northwestern University, priority 2003, dated 2012).
Ends that are not written are not given here. Peptide text beside a SMILES is read from it. * marks the point of attachment. Palmitoyl = CCCCCCCCCCCCCCCC(=O)*; NH(CH2)11CH3 = CCCCCCCCCCCCN*

System: mesenchymal stem cells
Assay: Mesenchymal stem cells cultured in PA gels with TGF-β1, lineage markers
Assay type: cell-based, Human
Conditions: TGF-β1 up to 20 ng/ml, 10 days
With “Asp(CONHC12)-Val-Val-Val-Ala-Ala-Ala-Lys-Lys-Lys-Ser-Gly-Gly-G-ly-Leu-Pro-Leu-Gly-Gln-Ser-His-NH2 [PA 10]” the “Collagen II expression” value was “higher for the binding gels” and the “α-smooth muscle actin expression” value was “higher in the binding gels than in the nonbinding gels”.

Molecular target: T1, rh-TGF-β1 (Homo sapiens, UniProt P01137)
T1 construct: purchased Peprotech
T1 sequence (P01137 279-390 limits assumed): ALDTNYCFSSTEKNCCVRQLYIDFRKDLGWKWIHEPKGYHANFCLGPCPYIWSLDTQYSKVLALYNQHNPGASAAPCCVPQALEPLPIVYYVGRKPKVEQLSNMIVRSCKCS
Assay: ELISA screening of phage display clones, relative binding strengths
Design: key to relative binding strength of selected clone (numeric coding): highest (1); 2: in decreasing binding strength from highest (1) to lowest (4); 3: in decreasing binding strength from highest (1) to lowest (4); lowest (4)
Conditions: TGF-β1 coated plates, ELISA
Excerpt: (§1) Phage display is typically used to find receptor-blocking peptides, i.e. sequences with high binding constants. To transfer a growth factor from the PA binding site to the cell receptor, an extremely high binding constant is not required and might even be unfavorable. Therefore, the 7-mer commercial phage library was elected over the […], aiming at intermediate binding strengths. Growth factors were physisorbed onto 96-well plates and subsequently exposed to the phage library. After incubation at room temperature for 60 minutes, the unbound phage was removed by rinsing with detergent solution. Bound phage was subsequently eluted by incubating with a growth factor solution for 60 minutes. The recovered phages were amplified for 4 h in E Coli at 37° C. and the panning was repeated two more times. In subsequent panning rounds, the stringency was increased by raising the detergent concentration and reducing the exposure time to the library. The final phage population was plated and the DNA of 10 clones of colonies containing only one phage type were sequenced. Next, ELISA screening was used to test for false positives and determine relative binding strengths of the selected clones. […] (See Table 1, below.)
(§2) Phage display was performed with the Ph.D. 7 kit (New England […]). Fifty microliters of diluted M13-phage library (containing 2×10^9 phages and all possible 7-mer sequences) were added to 96-well microtiter plates, which had been exposed to 50 μl 10 μg/ml growth factor (peprotech) solution for 18 h at 0° C. The plates were blocked for 1 h then incubated at room temperature for 60 minutes with gentle agitation. Unbound phage was removed by rinsing with TBS/Tween-20 (0.1% v/v Tween-20). Bound phage was subsequently eluted by incubating with 50 μl growth factor solution for 60 minutes. The presence of binding phage was determined by serial dilution of the phages and subsequent plating with E. Coli on agar plates. The number of plaques formed can be related to the number of phages in the original mixture. The phages were subsequently amplified for 4 h in E. Coli at 37° C. In subsequent panning rounds, the concentration of Tween-20 was raised to 0.5% and the binding and elution times were decreased and increased, respectively, to increase the stringency of the selection process. After three rounds of panning, the recovered phage mixture is diluted and plated with bacteria on agar. Subsequently, plaques are isolated containing a single DNA sequence. After purification, ten clones were sequenced. Next, ELISA screening was used to eliminate false positives and determine relative binding strengths of the selected clones. Each clone was incubated for 1 h on growth factor coated microtiter plates, the plates were rinsed with TBS/Tween-20 and subsequently HRP-conjugated anti-M13 antibody (Amersham Biosciences) was incubated for 1 h. After addition of ABTS, the absorbance at 450 nm was measured after 30 minutes to determine the relative binding strengths of the isolated clones. The strongest binder was subsequently selected.
For RVSTWDT, the “relative binding strength of selected clone (numeric coding)” value was “RVSTWDT (3)”.
With LPLGNSH the “relative binding strength of selected clone (numeric coding)” value was “LPLGNSH (1)”.
With AWKSVTA the “relative binding strength of selected clone (numeric coding)” value was “AWKSVTA (3)”.
For LPSPIQK, the “relative binding strength of selected clone (numeric coding)” value was “LPSPIQK (2)”.
In the case of PAPRWIH, the “relative binding strength of selected clone (numeric coding)” value is reported as “PAPRWIH (3)”.
In the case of RTTSPTA, the “relative binding strength of selected clone (numeric coding)” value is reported as “RTTSPTA (3)”.
In the case of VYRHLPT, the “relative binding strength of selected clone (numeric coding)” value is reported as “VYRHLPT (2)”.
With LRNYSHS the “relative binding strength of selected clone (numeric coding)” value was “LRNYSHS (3)”.
With GKYPPTS the “relative binding strength of selected clone (numeric coding)” value was “GKYPPTS (3)”.

Same assay, conditions: phage display and ELISA screening
In the case of LPLGNSH, the “binding to TGF-β1 (in words)” value is reported as “best binding epitope”.

Molecular target: T2, rh-BMP-2 (Homo sapiens, UniProt P12643)
T2 construct: purchased Peprotech
T2 sequence (P12643 283-396): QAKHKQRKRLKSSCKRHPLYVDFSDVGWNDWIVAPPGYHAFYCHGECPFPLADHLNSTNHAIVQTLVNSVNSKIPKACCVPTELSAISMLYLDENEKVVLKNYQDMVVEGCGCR
Assay: as above
Design: key to relative binding strength of selected clone (numeric coding): highest (1); 2: in decreasing binding strength from highest (1) to lowest (4); 3: in decreasing binding strength from highest (1) to lowest (4); lowest (4)
Conditions: BMP-2 coated plates, ELISA
Excerpt: as §1, §2
With DVSPAYH the “relative binding strength of selected clone (numeric coding)” value was “DVSPAYH (3)”.
For KVPPANT, the “relative binding strength of selected clone (numeric coding)” value was “KVPPANT (3)”.
In the case of PIQPDER, the “relative binding strength of selected clone (numeric coding)” value is reported as “PIQPDER (2)”.
With PGPTVQG the “relative binding strength of selected clone (numeric coding)” value was “PGPTVQG (2)”.
In the case of QQTQAQH, the “relative binding strength of selected clone (numeric coding)” value is reported as “QQTQAQH (4)”.
For WPALFTH, the “relative binding strength of selected clone (numeric coding)” value was “WPALFTH (3)”.
In the case of PFDPPVR, the “relative binding strength of selected clone (numeric coding)” value is reported as “PFDPPVR (2)”.
For YPVHPST, the “relative binding strength of selected clone (numeric coding)” value was “YPVHPST (1)”.
With LHYPFMT the “relative binding strength of selected clone (numeric coding)” value was “LHYPFMT (3)”.
With KQALTQT the “relative binding strength of selected clone (numeric coding)” value was “KQALTQT (3)”.

Same assay, conditions: phage display and ELISA screening
With YPVHPST the “binding to BMP-2 (in words)” value was “best binding epitope”.

System: not listed separately
Assay: Acid-base (pKa) titrations of PA aggregates
Conditions: 3 mM, aggregated state
Method: Acid-Base titrations. pKa titrations were preformed on PAs 1-4 in the range of pH 2-10 with a Fisher Accumet pH meter at a concentration of 3.5 mg/mL in 100 mM KCl. For the acidic PAs 2 and 4, 0.1N KOH was added in 1-5 μL increments, starting at low pH, whereas for the basic PAs 1 and 3, 0.1N HCl was added in 1-5 μL increments, starting at a high pH.
pKa titrations of aggregates of molecules 1-4 were carried out at a concentration of 3 mM. All titrations were started at a pH where the molecules were already in their aggregated state in order to avoid kinetic effects due to self-assembly.
For `CCCCCCCCCCCCCCCC(=O)N[C@H](C(=O)N[C@H](C(=O)N[C@H](C(=O)N[C@@H](C)C(=O)N[C@@H](C)C(=O)N[C@@H](C)C(=O)N[C@@H](CCC(=O)O)C(=O)N[C@@H](CCC(=O)O)C(=O)N[C@@H](CCC(=O)O)C(=O)O)C(C)C)C(C)C)C(C)C` [PA 2] (Palmitoyl-VVVAAAEEE-OH), the “apparent pKa of aggregates (titration curve)” value was “complex curves with transitions occurring over wide ranges”.
For “Asp(CONHC12)-Val-Val-Val-Ala-Ala-Ala-Glu-Glu-Glu-NH2 (D(NH(CH2)11CH3)VVVAAAEEE-NH2; N-terminus assumed; SMILES CCCCCCCCCCCCNC(=O)C[C@H](N)C(=O)N[C@H](C(=O)N[C@H](C(=O)N[C@H](C(=O)N[C@@H](C)C(=O)N[C@@H](C)C(=O)N[C@@H](C)C(=O)N[C@@H](CCC(=O)O)C(=O)N[C@@H](CCC(=O)O)C(=O)N[C@@H](CCC(=O)O)C(N)=O)C(C)C)C(C)C)C(C)C) [PA 4]”, the “apparent pKa of aggregates (titration curve)” value was “complex curves with transitions occurring over wide ranges”.

System: vascular endothelial growth factor (VEGF)
Assay: Phage display binding sequences (12-mer kit)
Design: key: * denotes the strongest binders
Conditions: 12-mer phage display kit
Method: (§3) Numerous binding sequences were determined for vascular endothelial growth factor (VEGF), both with 7- and 12-mer phage display kit, basic fibroblast growth factor (FGF-2), neurotrophin-3 (NT-3) and laminin-5; * denotes the strongest binders: […]
In the case of VSILSTIPNSMT, the strongest binders is reported as “VSILSTIPNSMT*”.
With PLTPSALLPIFE the strongest binders was “PLTPSALLPIFE*”.
With PTPLKVRLHSYN the strongest binders was “PTPLKVRLHSYN*”.

System: laminin-5
Assay: Phage display binding sequences
Design: key: * denotes the strongest binders
Conditions: not given
Method: as §3
In the case of RYHPHLH, the strongest binders is reported as “RYHPHLH*”.
